Our source for the stoichiometry N values is PMC10115243 (Nature plants, 2023).

The target of test [1] is GalS1-ΔSTEM (Populus trichocarpa GalS1 lacking the stem region, residues 73-113) (Populus trichocarpa). The test can be described thus: SEC-MALS. In general terms: In gel filtration, larger molecules generally elute earlier.
Test [2] deals with Populus trichocarpa galactan synthase 1 (GalS1), residues 73-495, tag removed (Populus trichocarpa). The test can be described thus: SEC-MALS + other: SAXS.
The target is the same in test [3]. Briefly: SEC-MALS.

Regarding “GalS1-ΔSTEM (Populus trichocarpa GalS1 lacking the stem region, residues 73-113) (domain or fragment)”, the stoichiometry N in test [1] worked out at 2. “Populus trichocarpa galactan synthase 1 (GalS1), residues 73-495, tag removed (enzyme)”: the stoichiometry N in test [2] and in test [3] was 2 each time.

Broadly, the stoichiometry N is a count of units in the complex or per binding partner.
